The target in experiment [1] is T1, SARS-CoV-2 Spike RBD K417N, E484K, N501Y (SARS-CoV-2, UniProt P0DTC2 319-541).
T1 construct: domain: RBD; also called S. African partial (K417N, E484K, N501Y)
Nature of the experiment: HTRF, soluble RBD construct. For orientation: Time-resolved FRET reads energy transfer from a long-lived donor to a nearby acceptor.

Experiment [2] addresses T2, SARS-CoV-2 Spike RBD K417T, E484K, N501Y (SARS-CoV-2, UniProt P0DTC2 319-541).
T2 construct: domain: RBD; also called Brazilian (K417T, E484K, N501Y)
The experiment can be described thus: HTRF, soluble RBD construct.

Experiment [3] has as its target T3, SARS-CoV-2 Spike S1 domain ΔHV69/70, ΔY144, N501Y, A570D, D614G, P681H (SARS-CoV-2, UniProt P0DTC2 16-685).
T3 construct: domain: S1; also called U.K. (B.1.1.7); DHV69/70, DY144, N501Y, A570D, D614G, P681H
The experiment can be described thus: HTRF, soluble S1 construct.

The target of experiment [4] is T4, SARS-CoV-2 Spike S1 domain A222S, D614G (SARS-CoV-2, UniProt P0DTC2 16-685).
T4 construct: domain: S1; also called Spanish (A222S, D614G)
Nature of the experiment: HTRF, soluble S1 construct.

Experiment [5] has as its target T5, SARS-CoV-2 Spike S1 domain ΔHV69/70, Y453F, D614G (SARS-CoV-2, UniProt P0DTC2 16-685).
T5 construct: domain: S1; also called Denmark (ΔHV69/70, Y453F, D614G); DHV69/70, Y453F, D614G
Nature of the experiment: HTRF, soluble S1 construct.

The target of experiment [6] is T6, SARS-CoV-2 Spike S1 domain K417N, E484K, N501Y, D614G (SARS-CoV-2, UniProt P0DTC2 16-685).
T6 construct: domain: S1; also called S. African (K417N, E484K, N501Y, D614G); B.1.351
Nature of the experiment: HTRF, soluble S1 construct.

In experiment [7] the target is T7, SARS-CoV-2 Spike S1 domain D614G (SARS-CoV-2, UniProt P0DTC2 16-685).
T7 construct: domain: S1
Nature of the experiment: HTRF, soluble S1 construct.

For experiment [8], the target named is T8, SARS-CoV-2 Spike-RBD Omicron variant (SARS-CoV-2, UniProt P0DTC2 319-541).
T8 construct: domain: RBD; also called soluble RBD domain of the Spike protein containing mutations found in the Omicron variant
Nature of the experiment: HTRF binding assay on soluble Spike-RBD B.1.1.529; % binding relative to Ref.

The target of experiment [9] is T2, SARS-CoV-2 Spike RBD K417T, E484K, N501Y. Nature of the experiment: HTRF, EC50 of binding, soluble RBD construct.

B1: PR200_00622 (antibody, V domains shown)
VH: QVQLVESGGGVVQPGRSLRLSCTASGFTFSTYGMHWVRQAPGKGLEWVAVISYDGSSKHYAESVKGRFTISRDNSNNTLYLQMNRLRAEDTAVYYCARDGQPPGWGNYFDYWGQGTLVTVAS
VL: SYVLTQPPSVSVAPGKTARITCGGNGIGSKSVYWYQQKPGQAPEVVVYDDSDRPSGIPERFSGSNSGNTATLTISRVEAGDEADYYCQVWDSSSDPWVFGGGTKLTVL
notes: also called IMM20253; PR200_00253
For the molecule B1, the half-maximal effective concentration (EC50) in experiment [1] came out at 0.0197 nM; in [2] it was 0.0236 nM. Moreover, the fold over background in [3] was 5.92 fold over background; in experiment [4], 6.64 fold over background; in [5] it was 7 fold over background; in [6] it was 6.28 fold over background; in [7], 6.1 fold over background.

B2: PR193_00018 (antibody, V domains shown)
VH: EVQLVESGGGLVQPGGSLRLSCSASGFTFSSFWMSWVRQAPGKGLEWVATIREDGSEKYYVDSVKGRFSISRDNAKNSLYLQMNSLRAEDTAVYYCARSKWLRGSFDYWGQGTLVTVSS
VL: NFMLTQPHSVSESPGKTVTISCTRRSGSIASNYVQWYQQRPGSAPTTVIYEDNQRPSGVPDRFSGSIDSSSNSASLTISGLQTEDEADYYCQSYDSSNPPGASWVFGGGTKLTVL
notes: also called IMM20184; IMM200184
As to B2, the EC50 in experiment [1] came to 0.0145 nM; in [2], 0.0183 nM. Also, the fold over background in experiment [3] amounted to 4.15 fold over background; in experiment [4], 5.43 fold over background; in experiment [5], 5.61 fold over background; in [6], 4.64 fold over background; in experiment [7], 4.93 fold over background.

B3: PR194_00232 (antibody, V domains shown)
VH: EVQLVESGGGLVQPGGSLRLSCSASGFTVSSNYMSWVRQAPRKGLEWVSVIYAGGSTFYADSVKGRFTISRDNSKNTLLLQMNSLRAEDTAVYYCARDRGGYLDYWGQGTLVTVSS
VL: DIQMTQSPSSLSASVGDRVTITCRASQGISNYLAWYQQKPGKVPKLLIYAASTLQSGVPSRFSGSGSGTDFTLTISSLQPEDVATYYCQKYNSAPGLTFGGGTKVEIK
notes: also called IMM20190; PR194_00190
For B3, the binding result in experiment [8] and in experiment [9] was “no binding” in each case. Further, the fold over background in experiment [3] stood at 3.91 fold over background; in experiment [4], 8.47 fold over background; in experiment [5], 8.18 fold over background; in experiment [6], 1.12 fold over background; in experiment [7], 4.84 fold over background.

In general, EC50 refers to the concentration at which the effect is half-maximal. Higher therefore signals a need for much substance.

The values are drawn from patent US20220235118A1 (IMMUNOME, published 2022).
